Positions count from the first letter of the chain named. In names and notes the source's numbering stands.
Molecular target: T1, IL-1β (UniProt P01584 117-269)
T1 construct: Antigen immobilised on the Biacore chip
Assay: Biacore, periplasmic extract

B1: XPA23 light chain L96Q (Fab, V domains shown)
VH: EVQLLESGGGLVQPGGSLRLSCAASGFTFSKYFMFWVRQAPGKGLEWVSVISPSGGMTRYADSVKGRFTISRDNSKNTLYLQMNSLRAEDTAVYYCARVGYGGNSDYWGQGTLVTVSS
VL: DIQMTQSPSSVSASVGDRLTIICRASQDINRWLAWYQQTPGNAPKLLIHSATSLQSGVPSRFSGSGSGTDFTLTINSLQPEDFATYYCQQADSFPQTFGGGTKVEIK
fold difference in affinity vs original: 0.21 fold

B2: XPA23 light chain N30P (Fab, V domains shown)
VH: B1 VH
VL: B1 VL with N30P, Q96L
fold difference in affinity vs original: 0.69 fold

B3: XPA23 light chain N30Q (Fab, V domains shown)
VH: B1 VH
VL: B1 VL with N30Q, Q96L
fold difference in affinity vs original: 0.6 fold

B4: XPA23 light chain N30A (Fab, V domains shown)
VH: B1 VH
VL: B1 VL with N30A, Q96L
fold difference in affinity vs original: 0.61 fold

B5: XPA23 light chain L96R (Fab, V domains shown)
VH: B1 VH
VL: B1 VL with Q96R
binding result: no binding

B6: XPA23 light chain N30I (Fab, V domains shown)
VH: B1 VH
VL: B1 VL with N30I, Q96L
fold difference in affinity vs original: 0.65 fold

B7: XPA23 light chain L96S (Fab, V domains shown)
VH: B1 VH
VL: B1 VL with Q96S
fold difference in affinity vs original: 0.23 fold

B8: XPA23 light chain N30L (Fab, V domains shown)
VH: B1 VH
VL: B1 VL with N30L, Q96L
fold difference in affinity vs original: 0.68 fold

B9: XPA23 light chain N30E (Fab, V domains shown)
VH: B1 VH
VL: B1 VL with N30E, Q96L
fold difference in affinity vs original: 0.64 fold

B10: XPA23 light chain N30F (Fab, V domains shown)
VH: B1 VH
VL: B1 VL with N30F, Q96L
fold difference in affinity vs original: 1.59 fold

B11: XPA23 light chain N30H (Fab, V domains shown)
VH: B1 VH
VL: B1 VL with N30H, Q96L
fold difference in affinity vs original: 1 fold

B12: XPA23 light chain L96W (Fab, V domains shown)
VH: B1 VH
VL: B1 VL with Q96W
fold difference in affinity vs original: 4.49 fold

B13: XPA23 light chain N30K (Fab, V domains shown)
VH: B1 VH
VL: B1 VL with N30K, Q96L
fold difference in affinity vs original: 0.61 fold

B14: XPA23 light chain N30R (Fab, V domains shown)
VH: B1 VH
VL: B1 VL with N30R, Q96L
fold difference in affinity vs original: 0.74 fold

B15: XPA23 light chain N30D (Fab, V domains shown)
VH: B1 VH
VL: B1 VL with N30D, Q96L
fold difference in affinity vs original: 0.81 fold

B16: XPA23 light chain N30G (Fab, V domains shown)
VH: B1 VH
VL: B1 VL with N30G, Q96L
fold difference in affinity vs original: 0.71 fold

B17: XPA23 light chain L96Y (Fab, V domains shown)
VH: B1 VH
VL: B1 VL with Q96Y
binding result: no binding

Source: patent US20110118131A1 (published 2011)
